According to doi:10.1101/2024.06.25.600654 (bioRxiv, 2024):

Molecular target: the molecule itself
Test: SEC-SAXS

B1: ParB1 from Vibrio cholerae (vcParB1) (natural protein)
chain: MTKRGLGKGLDALLATSSLAREKQQVASLSQSMSAEGELADLSISNLKPGIYQPRKDLSPEALEELAASIQSQGIIQPIVVRHLPTGGYEIIAGERRWRAAKQAGLKQVPCLIKQVEDRGAIAMALIENIQREDLNAMEEAQALERLQNEFNLTHQQVAEVIGKSRTTVTNLLRLNQLSDDVKRLLETKQLEMGHARALLMLEGEQQVEIAQQVAKKQLTVRQTEQLVKKCLSDPSDAKNVSEDLEIQQLSQNLSEKLAAKVSIVRTPNGKSKVTISLDEPHKLELLIAKLQN
stoichiometry N: 2
